Drawing on paper PMC10237660, this text covers stoichiometry N for one substance.

This experiment concerns the target C-terminal polyP binding domain of the E. coli exopolyphosphatase (EcPPXc) (E. coli strain K12). Description: SEC; analytical SE-UPLC, BEH200 4.6 x 300 mm column (Waters), running buffer 10 mM NaH2PO4, 400 mM (NH4)2SO4, pH 6.2; retention time compared with 158 kDa and 44 kDa standards. (In general: SEC sorts molecules by how far they enter the pores of the column.)

In general, stoichiometry N refers to the number of molecules, sites or subunits per partner or assembly. “C-terminal polyP binding domain of the E. coli exopolyphosphatase (EcPPXc) (domain or fragment)” displayed a stoichiometry N of 2.
